Source: doi:10.1101/2024.07.02.601760

Biological target: T1, Arabidopsis thaliana 14-3-3 kappa (Arabidopsis thaliana), P48348
T1 chain: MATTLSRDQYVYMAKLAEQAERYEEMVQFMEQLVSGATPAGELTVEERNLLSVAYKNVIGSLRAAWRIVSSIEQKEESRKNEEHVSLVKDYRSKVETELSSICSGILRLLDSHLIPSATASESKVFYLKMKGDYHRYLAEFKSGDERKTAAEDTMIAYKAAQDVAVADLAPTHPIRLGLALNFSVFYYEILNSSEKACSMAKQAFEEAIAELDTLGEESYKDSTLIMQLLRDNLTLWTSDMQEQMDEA
Assay: SEC-MALS
Conditions: remark: other sources report otherwise

B1: Arabidopsis thaliana 14-3-3 kappa, P48348 1-248 (natural protein)
chain: MATTLSRDQYVYMAKLAEQAERYEEMVQFMEQLVSGATPAGELTVEERNLLSVAYKNVIGSLRAAWRIVSSIEQKEESRKNEEHVSLVKDYRSKVETELSSICSGILRLLDSHLIPSATASESKVFYLKMKGDYHRYLAEFKSGDERKTAAEDTMIAYKAAQDVAVADLAPTHPIRLGLALNFSVFYYEILNSSEKACSMAKQAFEEAIAELDTLGEESYKDSTLIMQLLRDNLTLWTSDMQEQMDEA
stoichiometry N: 2
